Source: patent US10787640B2, “Producing mesodermal cell types and methods of using the same” (The Board of Trustees of the Leland Stanford Junior …, priority 2015, dated 2020)

Assays:
[1] = test system: hESC-derived cardiac mesoderm; assay: Cardiac mesoderm differentiation into cardiovascular fates, qPCR; assay type: cell-based, human
Experimental: Day 2 lateral mesoderm was differentiated into day 4 cardiac mesoderm by treating them with 1 μM A8301+30 ng/mL BMP4+1 μM C59+20 ng/mL FGF2 for 48 hrs, or alternatively, with 1 μM A8301+30 ng/mL BMP4+20 ng/mL FGF2 for 24 hrs followed by 25 ng/mL Activin+30 ng/mL BMP4+1 μM C59 for the next 24 hrs (schema in FIG. 5E; positive effect of mid-stage Activin shown in FIG. 12K). Subsequently, day 4 cardiac mesoderm was briefly washed (DMEM/F12) and treated with 30 ng/mL BMP4+1 μM XAV939+200 μg/mL 2-phospho-ascorbic acid (Sigma) for 48-96 hrs to yield day 6-8 cardiomyocyte-containing populations. Spontaneously contracting cardiomyocyte foci were evident from day 8 onwards.
C) To reveal the possible identity of non-cardiac mesoderm lineages that were contaminating cardiac mesoderm-containing cultures, NKX2.5-GFP hESCs were differentiated towards mid primitive streak (day 1) and were differentiated towards a heterogeneous population containing cardiac mesoderm (day 3) by treatment with SB-505124+BMP4+C59 (without FGF2) on days 2-3 of differentiation. FACS was performed on day 3 to purify either NKX2.5-GFP^+ or NKX2.5-GFP^− cells (top subpanels) which were sorted for qPCR (bottom subpanels). Gene expression was normalized to expression of a gene in the NKX2.5-GFP^+ fraction (dotted line). D) Timecourse of gene expression in hESCs differentiating towards mid primitive streak and lateral mesoderm, with treatment by SB-505124+BMP4+C59 on days 2-3 of differentiation. […] G) To assess whether a stabilized vitamin C analog (ascorbic acid-2-phosphate) (AA2P) enhanced cardiac mesoderm differentiation into cardiomyocytes, day 4 hESC-derived cardiac mesoderm was exposed to BMP4 (30 ng/mL)+XAV939 (1 μM) for 48 hours in the presence or absence of 200 μg/mL AA2P and qPCR was conducted of day 6 populations; qPCR data were normalized such that expression values in the highest-expressing sample was normalized=1.0. […] J) In the mouse embryo, endocardium (progenitors to heart-affiliated endothelium) are marked by transient coexpression of pan-heart marker Nkx2.5 together with endothelial markers (Ferdous et al., 2009; Stanley et al., 2002).

hESCs = assay: Primitive streak (PS) induction from hESCs, qPCR; assay type: cell-based, human
Experimental: As aforementioned, after overnight plating, hPSCs were briefly washed (with DMEM/F12) and then differentiated into either anterior primitive streak (30 ng/mL Activin A+4 μM CHIR99021+20 ng/mL FGF2+100 nM PIK90; for subsequent paraxial mesoderm induction) or mid primitive streak ([…] Activin A+40 ng/mL BMP4+6 μM CHIR99021+20 ng/mL FGF2+100 nM PIK90; for subsequent cardiac mesoderm induction) for 24 hrs.
Total cDNA was diluted 1:10-1:30 in H2O and qPCR was performed with the SensiFAST SYBR Lo-ROX Kit (Bioline) with 10 μL qPCR reactions per well in a 384-well plate: 5.0 μL 2× qPCR Master Mix+4.6 μL cDNA (totaling ˜120 ng of cDNA)+0.4 μL of 10 μM primer stock (5 μM forward+5 μM reverse primers). In general, gene-specific primer pairs were tested for (1) specificity of amplicon amplification (only one peak on a dissociation curve) and (2) linearity of amplicon amplification (linear detection of gene expression in cDNA samples serially diluted seven times over two orders of magnitude, with 90-110% efficiency of amplification deemed acceptably linear). After qPCR plates were prepared by arraying sample-specific cDNAs and gene-specific primers, they were sealed and briefly centrifuged (5 mins). 384-well qPCR plates and their adhesive sealing sheets were obtained from Thermo (AB1384 and AB0558, respectively). qPCR plates were run on a 7900HT Fast Real-Time PCR System (Applied Biosystems) with the following cycling parameters: initial dissociation (95° C., 2 mins) followed by 40 cycles of amplification and SYBR signal detection (95° C. dissociation, 5 seconds; 60° C. annealing, 10 seconds; followed by 72° C. extension, 30 seconds), with a final series of steps to generate a dissociation curve at the end of each qPCR run. During qPCR data analysis, the fluorescence threshold to determine Ct values was set at the linear phase of amplification; other qPCR data analysis methods including qPCR heatmap generation using the GenePattern platform (Broad Institute) were described previously by Loh et al., 2014, the disclosure of which is incorporated herein by reference in its entirety.
E) To assess whether inducing PS in the presence of TGFβ signaling altered its downstream potential to form different kinds of mesoderm, (i) H7 hESCs were differentiated into PS with CHIR99021+FGF2+PIK90 (CFK) for 24 hours in the presence or absence of increasing amounts of Activin (10-100 ng/mL), and then were transferred into paraxial mesoderm induction conditions (A-83-01+CHIR99021+DM3189+FGF2) for 24 hrs, and qPCR was conducted or (ii) H7 hESCs were differentiated into PS with BMP4 (10 ng/mL)+CHIR99021+FGF2+PIK90 (B10CFK) for 24 hours in the presence or absence of increasing amounts of Activin (10-100 ng/mL), and then were transferred into lateral/cardiac mesoderm inductions (A-83-01+BMP4+C59) for 24 hours and qPCR was conducted. […] F) To assess whether inducing PS in the presence of BMP signaling altered its downstream potential to form different kinds of mesoderm, H7 hESCs were differentiated into PS with Activin (10 ng/mL)+CHIR99021+FGF2+PIK90 (A10CFK) for 24 hours in the presence of absence of increasing amounts of BMP4 (1-40 ng/mL), and then were (i) transferred into paraxial mesoderm induction conditions (A-83-01+CHIR99021+DM3189+FGF2) for 24 hrs, and qPCR was conducted or were (ii) transferred into lateral/cardiac mesoderm inductions (A-83-01+BMP4+C59) for 24 hours and qPCR was conducted. […] G) H7 hESCs were differentiated into anterior primitive streak (30 ng/mL Activin+4 μM CHIR99021+20 ng/mL FGF2+100 nM PIK90) in the presence or absence of BMP4 (10 ng/mL) for 24 hours, and then transferred into paraxial mesoderm induction conditions for 24 hours before TBX6 immunostaining was conducted. […]

Cc1cnc(-c2cnc(NCCNc3ccc(C#N)cn3)nc2-c2ccc(Cl)cc2Cl)[nH]1 [CHIR99021, 6-[[2-[[4-(2,4-Dichlorophenyl)-5-(5-methyl-1H-imidazol-2-yl)-2-pyrimidinyl]amino]ethyl]amino]-3-pyridinecarbonitrile]
differentiation into cardiomyocytes (qPCR day 6) ([1]; BMP4 30 ng/mL with CHIR99021 3 μM, 48 hours): fully blocked cardiac mesoderm differentiation into cardiomyocytes
PS marker expression (qPCR) (hESCs; 24 hours in A3B3F20, 300 ng/mL WNT3A or 0.5-8 μM CHIR99021): broadly induces both anterior (TBX6) and mid/posterior (FOXF1, MESP1) PS markers

Cc1cccc(-c2[nH]c(C(C)(C)C)nc2-c2ccc3c(c2)OCO3)n1 [SB-505124, 2-[4-(1,3-Benzodioxol-5-yl)-2-(1,1-dimethylethyl)-1H-imidazol-5-yl]-6-methyl-pyridine]
PS differentiation (hESCs; CHIR99021+20 ng/mL FGF2+100 nM PIK90 with 2 μM SB-505124 or 1 μM A-83-01): strongly impairs PS differentiation

B1: Activin: TGFβ agonist (protein, UniProt P08476 311-426, looked up)
Inhibin beta A chain: GLECDGKVNICCKKQFFVSFKDIGWNDWIIAPSGYHANYCEGECPSHIAGTSGSSLSFHSTVINHYRMRGHSPFANLKSCCVPTKLRPMSMLYYDDGQNIIKKDIQNMIVEECGCS
modifications: Inhibin beta A chain
notes: TGFβ agonist
subsequent cardiomyocyte differentiation ([1]; day 3 cardiac mesoderm, BMP4+C59+FGF2 with Activin 25 ng/mL, 24 hours): enhanced subsequent cardiomyocyte differentiation

B2: BMP4: BMP family ligand, BMP agonist (protein, UniProt P12644 293-408, looked up)
Bone morphogenetic protein 4: SPKHHSQRARKKNKNCRRHSLYVDFSDVGWNDWIVAPPGYQAFYCHGDCPFPLADHLNSTNHAIVQTLVNSVNSSIPKACCVPTELSAISMLYLDEYDKVVLKNYQEMVVEGCGCR
cardiovascular fate commitment (TNNT2, MYH6, MYH7) ([1]; XAV939 1 μM with BMP4 5-30 ng/mL, 48 hours): preferentially promotes commitment to cardiomyocyte fate
cardiomyocyte and endothelial gene expression ([1]; day 4 cardiac mesoderm, BMP4 30 ng/mL, 48 hours): upregulation of both cardiomyocyte (myocardium) and endothelial (presumptive endocardium) genes
PS formation and anterior-posterior patterning (hESCs; ACFK with LDN193189 250 nM or BMP4 3-100 ng/mL): induced posterior PS
